Tests used:
E. coli Hfq = E. coli Hfq (Escherichia coli, UniProt P0A6X3 1-102); assay: fluorescence anisotropy
S. aureus Hfq = S. aureus Hfq (Staphylococcus aureus, UniProt A0A0H3JV59 1-77); assay: fluorescence anisotropy

GUGGUCAGUCGAGUGGCUUCCGUCCAUUUCGGACGUUUUUU (structured_RNA) [Cy3-mini-sRNA]
Kd (E. coli Hfq): 2.7 ± 0.8 nM
Kd (S. aureus Hfq): 100 nM

— paper PMC4884477
